# From the DeepSol protein solubility set
# Experiment: soluble on expression in E. coli; label from the status in PepcDB or PDB records
row,Sequence,soluble on expression in E. coli
1,MSLLKQRFVLDTTALTDLQTREVMGYASLCEGMKAILDLIADARLHFGISCYVPYPSVYKEMYEFASRNGCDREVVAKIDTWLVKKSPDRYRVSVTSQIFHEYVAYMRERINRGMGVAEDAIWEAATECLFMENPQNKKKEYKEEVEREVIGGIIGKFRNKYRAALRYGILDSAPDIDVLILAKELDAAVIASDYGIEKWAEQLGVRFVPANVFPMMIQEYLKHLPENENEPEYENRDKSKEGSSGEIEFIEGHHHHHH,soluble
2,MSLLQSALDFLAGPGSLGGASGRDQSDFVGQTVELGELRLRVRRVLAEGGFAFVYEAQDVGSGREYALKRLLSNEEEKNRAIIQEVCFMKKLSGHPNIVQFCSAASIGKEESDTGQAEFLLLTELCKGQLVEFLKKMESRGPLSCDTVLKIFYQTCRAVQHMHRQKPPIIHRDLKVENLLLSNQGTIKLCDFGSATTISHYPDYSWSAQRRALVEEEITRNTTPMYRTPEIIDLYSNFPIGEKQDIWALGCILYLLCFRQHPFEDGAKLRIVNGKYSIPPHDTQYTVFHSLIRAMLQVNPEERLSIAEVVHQLQEIAAARNVNPKSPITELLEQNGGYGSATLSRGPPPPVGPAGSGYSGGLALAEYDQPYGGFLDILRGGTERLFTNLKDTSSKVIQSVANYAKGDLDISYITSRIAVMSFPAEGVESALKNNIEDVRLFLDSKHPGHYAVYNLSPRTYRPSRFHNRVSECGWAARRAPHLHTLYNICRNMHAWLRQDHKNVCVVHCMDGRAASAVAVCSFLCFCRLFSTAEAAVYMFSMKRCPPGIWPSHKRYIEYMCDMVAEEPITPHSKPILVRAVVMTPVPLFSKQRSGCRPFCEVYVGDERVASTSQEYDKMRDFKIEDGKAVIPLGVTVQGDVLIVIYHARSTLGGRLQAKMASMKMFQIQFHTGFVPRNATTVKFAKYDLDACDIQEKYPDLFQVNLEVEVEPRDRPSREAPPWENSSMRGLNPKILFSSREEQQDILSKFGKPELPRQPGSTAQYDAGAGSPEAEPTDSDSPPSSSADASRFLHTLDWQEEKEAETGAENASSKESESALMEDRDESEVSDEGGSPISSEGQEPRADPEPPGLAAGLVQQDLVFEVETPAVLPEPVPQEDGVDLLGLHSEVGAGPAVPPQACKAPSSNTDLLSCLLGPPEAASQGPPEDLLSEDPLLLASPAPPLSVQSTPRGGPPAAADPFGPLLPSSGNNSQPCSNPDLFGEFLNSDSVTVPPSFPSAHSAPPPSCSADFLHLGDLPGEPSKMTASSSNPDLLGGWAAWTETAASAVAPTPATEGPLFSPGGQPAPCGSQASWTKSQNPDPFADLGDLSSGLQGSPAGFPPGGFIPKTATTAKGSSSWQTSRPPAQGASWPPQAKPPPKACTQPRPNYASNFSVIGAREERGVRAPSFAQKPKVSENDFEDLLSNQGFSSRSDKKGPKTIAEMRKQDLAKDTDPLKLKLLDWIEGKERNIRALLSTLHTVLWDGESRWTPVGMADLVAPEQVKKHYRRAVLAVHPDKAAGQPYEQHAKMIFMELNDAWSEFENQGSRPLF,soluble
3,MSLNAPSNAPWLSHYDEGIPSSLAPYPRVTLPDILREAARKHPEDPALLFLGNTISYGELERESNAFAAALHASEVRKGNRVAVLLPNSPQMIIAEFGIWKAGGIAVMLNPLWTEHELERAIDECEAEIAVVLAPFYEKINHLRSRTSLKTVVITDLHDYFPAAMRNASPANGAVATMLQSSDLRMPAMIESYSGSQTPAVEVSPKDPALFIFSGGTTGKPKCAIGRHEASVMNGMQVDAWFRPVLGSDRVPVMLNLPLHHVYPQVAIIGYGFVTRSPLVLIPDPRDFELLIKTIKQYKVGLLPGIPTLFNALAAHPLLKEAPGSLDSLKLIISAAAPLHNKTRRRFKELTGATIIDAYGLTEAMVSPVCQPLNGIRKNGSVGLPVPDVEMRIVDADTGIEVLPSMEIGEIVIRSPQLMTGYWKNPEETAEVLRDGWLYTGDLGYIDDDGYLYIVDRKKDVIKPSGFQVWPSEVEEVIAMHPAVLETGVAGVPDDYQSEAVKAWVVLHKGHSLDAEQLKNWCRQTLAPYKVPKHIEFCEQLPKSALGKVLRQALVEQHLTSEGHHHHHH,soluble
4,MSLNAQNAGINFLHGTTWAEAVAKAKAENKLIFIDFYTQWCGPCMNMAQTVFSLPTVGYYYNQTFINLKIDAEEGEGITLAKKYGVRSYPTYAFVDPATEEIVHRSSSRQTPEQFIQTGKDANIPTKRSFYLQEQYTKGNRERAFLIDYINYHYSVYARNNVQAAFDELIKGGAKLTDPDVWEVYVNTINGMNPYLKQVSDNYADFCQRFGKKAVDAKLAKETSYGELAEIEALCNYEGKDFNLKMIRINNDIREQKYEAAATQIDAMIADTTVNQQELISRLKFIARLGYKAEELPEFWFNKCVGYLQYIAYNQTDRDDAFIHQEYAAALEMVLRKLNGKAPIPACLSTEPAYGKKVYNMRPDALKMKPKREGHHHHHH,soluble
